Laboratory results published in patent US20090191217A1 (published 2009).
Numbering of substitutions follows the chain as printed.

B1: DOM4-122-23 (other)
VL: DIQMTQSPSSLSASVGDRVTITCRASQWIGRELRWYQQKPGKAPMFLIYHASRLQRGVPSRFSGSGSGTDFTLTISSLQPEDFATYYCQQYHGWPLTFGQGTKVEIKR
B2: DOM4-130-3 (other)
VL: DIQMTQSPSSLSASVGDRVTITCRASQDIYLNLDWYQQKPGKAPKLLIYGTSNLQSGVPSRFSGSGSGTDFTLTISSLQPEDFATYYCQPSFYFPYTFGQGTKVEIRR
B3: DOM4-130-46 (other)
VL: B2 VL with Y49N, G50F, T51G, N53E
B4: DOM4-122-6 (other)
VL: B1 VL with R56S
B5: DOM4-129-1 (other)
VL: B1 VL with W28N, G30D, G93D, W94F

target: T1, Interleukin-1 receptor type 1 (IL-1R1) on cells (human, UniProt P14778 18-569); assay: cell-based or functional assay
T1 sequence (looked up): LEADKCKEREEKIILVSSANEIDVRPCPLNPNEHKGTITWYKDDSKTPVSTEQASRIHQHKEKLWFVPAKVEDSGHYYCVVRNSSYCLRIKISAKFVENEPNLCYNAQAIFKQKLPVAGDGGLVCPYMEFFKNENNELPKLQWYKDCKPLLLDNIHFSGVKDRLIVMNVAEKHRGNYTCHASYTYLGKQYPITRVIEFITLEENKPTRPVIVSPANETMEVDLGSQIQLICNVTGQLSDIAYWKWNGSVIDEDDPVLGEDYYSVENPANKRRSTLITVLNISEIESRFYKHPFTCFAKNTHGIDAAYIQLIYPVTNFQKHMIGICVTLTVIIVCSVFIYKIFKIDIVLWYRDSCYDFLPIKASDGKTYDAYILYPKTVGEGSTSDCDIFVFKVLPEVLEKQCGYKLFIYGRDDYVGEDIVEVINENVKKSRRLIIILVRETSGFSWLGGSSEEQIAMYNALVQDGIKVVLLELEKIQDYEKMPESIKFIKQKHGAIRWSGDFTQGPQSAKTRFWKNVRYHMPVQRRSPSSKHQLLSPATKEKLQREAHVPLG

ND50, inhibition of IL-1-induced IL-8 release from MRC-5 cells [nM] | Binder
~1 | B1
~30 | B2
~1 | B3
~10 | B4
~10 | B5
